Source: US12467929

Tests used:
[1] = target: recombinant UBE3A protein (Homo sapiens (Human)) (UniProt Q05086); assay: 2-step Simoa; capture GTX; UBE3A 125 ng/ml
[2] = target: recombinant UBE3A protein (Homo sapiens (Human)) (UniProt Q05086); assay: 3-step Simoa; capture GTX; UBE3A 1.95 ng/ml
[3] = target: recombinant UBE3A protein (Homo sapiens (Human)) (UniProt Q05086); assay: Simoa; capture GTX, no helper beads; 3E5 0.4 ug/ml; UBE3A 0.0320 ng/ml
[4] = target: recombinant UBE3A protein (Homo sapiens (Human)) (UniProt Q05086); assay: Simoa; capture GTX; 3E5 0.1 ug/ml; UBE3A 0.800 ng/ml
[5] = target: recombinant UBE3A protein (Homo sapiens (Human)) (UniProt Q05086); assay: Simoa; capture GTX + helper beads; 3E5 0.2 ug/ml; UBE3A 4.00 ng/ml
[6] = target: recombinant UBE3A protein (Homo sapiens (Human)) (UniProt Q05086); assay: Simoa head-to-head, Table 11; capture MS 2F6; UBE3A 0.032 ng/ml
[7] = target: recombinant UBE3A protein (Homo sapiens (Human)) (UniProt Q05086); assay: Simoa; capture GTX; 3E5 0.2 ug/ml; UBE3A 20.0 ng/ml
[8] = target: recombinant UBE3A protein (Homo sapiens (Human)) (UniProt Q05086); assay: Simoa; capture GTX; SBG 150 pm; UBE3A 20.0 ng/ml
[9] = target: recombinant UBE3A protein (Homo sapiens (Human)) (UniProt Q05086); assay: Simoa; capture GTX, no helper beads; 3E5 0.2 ug/ml; UBE3A 20.0 ng/ml
[10] = target: recombinant UBE3A protein (Homo sapiens (Human)) (UniProt Q05086); assay: Simoa; capture GTX, no helper beads; 3E5 0.1 ug/ml; UBE3A 0.160 ng/ml
[11] = target: recombinant UBE3A protein (Homo sapiens (Human)) (UniProt Q05086); assay: Simoa; capture GTX; SBG 75 pm; UBE3A 0.0320 ng/ml
[12] = target: recombinant UBE3A protein (Homo sapiens (Human)) (UniProt Q05086); assay: Simoa; capture GTX, no helper beads; 3E5 0.1 ug/ml; UBE3A 4.00 ng/ml
[13] = target: recombinant UBE3A protein (Homo sapiens (Human)) (UniProt Q05086); assay: Simoa; capture GTX + helper beads; 3E5 0.4 ug/ml; UBE3A 0.160 ng/ml
[14] = target: recombinant UBE3A protein (Homo sapiens (Human)) (UniProt Q05086); assay: Simoa; capture GTX, no helper beads; 3E5 0.4 ug/ml; UBE3A 4.00 ng/ml
[15] = target: recombinant UBE3A protein (Homo sapiens (Human)) (UniProt Q05086); assay: Simoa; capture GTX; 3E5 0.1 ug/ml; UBE3A 0.00128 ng/ml
[16] = target: recombinant UBE3A protein (Homo sapiens (Human)) (UniProt Q05086); assay: 3-step Simoa, 120 min bead step; capture GTX; UBE3A 0.00640 ng/ml
[17] = target: recombinant UBE3A protein (Homo sapiens (Human)) (UniProt Q05086); assay: Simoa; capture GTX; SBG 100 pm; UBE3A 0.00640 ng/ml
[18] = target: recombinant UBE3A protein (Homo sapiens (Human)) (UniProt Q05086); assay: Simoa; capture GTX + helper beads; 3E5 0.1 ug/ml; UBE3A 0.00640 ng/ml
[19] = target: recombinant UBE3A protein (Homo sapiens (Human)) (UniProt Q05086); assay: Simoa; capture GTX; 3E5 0.4 ug/ml; UBE3A 0.00640 ng/ml
[20] = target: recombinant UBE3A protein (Homo sapiens (Human)) (UniProt Q05086); assay: Simoa; capture GTX + helper beads; 3E5 0.1 ug/ml; UBE3A 0.800 ng/ml

Chain of UniProt Q05086 (Q05086 whole entry): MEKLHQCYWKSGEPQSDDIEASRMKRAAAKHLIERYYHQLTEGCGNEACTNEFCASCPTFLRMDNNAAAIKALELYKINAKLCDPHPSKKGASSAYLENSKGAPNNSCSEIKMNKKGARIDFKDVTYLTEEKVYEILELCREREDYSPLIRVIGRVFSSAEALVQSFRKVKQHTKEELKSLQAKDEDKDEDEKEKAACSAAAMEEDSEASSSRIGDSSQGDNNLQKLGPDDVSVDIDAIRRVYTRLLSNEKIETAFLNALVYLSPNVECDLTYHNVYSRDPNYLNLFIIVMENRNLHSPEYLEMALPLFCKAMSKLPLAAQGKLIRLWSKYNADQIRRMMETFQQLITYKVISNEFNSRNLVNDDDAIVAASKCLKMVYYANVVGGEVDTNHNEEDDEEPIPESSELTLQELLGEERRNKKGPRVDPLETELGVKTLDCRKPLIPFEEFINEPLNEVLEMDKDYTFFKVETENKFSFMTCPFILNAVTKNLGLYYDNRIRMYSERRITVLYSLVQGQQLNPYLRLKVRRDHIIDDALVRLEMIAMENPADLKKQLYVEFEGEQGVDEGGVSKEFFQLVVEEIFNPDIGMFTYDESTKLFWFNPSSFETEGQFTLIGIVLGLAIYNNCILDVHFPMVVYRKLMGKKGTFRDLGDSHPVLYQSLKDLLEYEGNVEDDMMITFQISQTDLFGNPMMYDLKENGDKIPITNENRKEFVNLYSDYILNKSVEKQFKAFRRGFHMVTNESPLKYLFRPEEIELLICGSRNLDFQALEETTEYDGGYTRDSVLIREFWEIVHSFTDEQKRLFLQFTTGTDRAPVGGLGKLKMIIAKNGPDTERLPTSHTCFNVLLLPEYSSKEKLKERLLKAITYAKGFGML

## NB500-240 (Novus) (antibody)
[1]
  AEB1: 0.263
  AEB2: 0.241
  Ave AEB: 0.252
  Signal to Background: 77.1
[2]
  AEB1: 0.0052
  AEB2: 0.0042
  Ave AEB: 0.0047
  Signal to Background: 1.44

## anti-UBE3A antibody 3E5 (SAB1404508-100 ug, Millipore-Sigma)
[3]
  AEB1: 0.0366
  AEB2: 0.037
  Average AEB: 0.0368
  Signal to Background: 1.88
[4]
  AEB1: 0.257
  AEB2: 0.27
  AEB3: 0.245
  Average AEB: 0.257
  Signal to Background: 13.3
[5]
  AEB1: 0.892
  AEB2: 0.846
  Average AEB: 0.869
  Signal to Background: 89.8
[6]
  AEB1: 0.0032
  AEB2: 0.0043
  Ave AEB: 0.0037
  Signal to Background: 0.986
[7]
  AEB1: 6.38
  AEB2: 6.95
  AEB3: 6.77
  Average AEB: 6.7
  Signal to Background: 171
[8]
  AEB1: 5.87
  AEB2: 5.57
  AEB3: 5.72
  Average AEB: 5.72
  Signal to Background: 431
[9]
  AEB1: 4.96
  AEB2: 5
  Average AEB: 4.98
  Signal to Background: 514
[10]
  AEB1: 0.0402
  AEB2: 0.0395
  Average AEB: 0.0399
  Signal to Background: 6.95
[11]
  AEB1: 0.0091
  AEB2: 0.0117
  AEB3: 0.0116
  Average AEB: 0.0108
  Signal to Background: 2.47
[12]
  AEB1: 0.607
  AEB2: 0.603
  Average AEB: 0.605
  Signal to Background: 106
[13]
  AEB1: 0.0913
  AEB2: 0.105
  Average AEB: 0.0983
  Signal to Background: 5.03
[14]
  AEB1: 1.1
  AEB2: 1.11
  Average AEB: 1.11
  Signal to Background: 56.7
[15]
  AEB1: 0.0242
  AEB2: 0.0239
  AEB3: 0.0247
  Average AEB: 0.0243
  Signal to Background: 1.26
[16]
  AEB1: 0.0054
  AEB2: 0.0055
  Ave AEB: 0.0055
  Signal to Background: 3.22
[17]
  AEB1: 0.0098
  AEB2: 0.0098
  AEB3: 0.0111
  Average AEB: 0.0103
  Signal to Background: 1.22
[18]
  AEB1: 0.0065
  AEB2: 0.0045
  Average AEB: 0.0055
  Signal to Background: 0.962
[19]
  AEB1: 0.0671
  AEB2: 0.0638
  AEB3: 0.0865
  Average AEB: 0.0725
  Signal to Background: 1.16
[20]
  AEB1: 0.167
  AEB2: 0.166
  Average AEB: 0.166
  Signal to Background: 29
